In PMC13061610:

Biological target: Dob3 (Nocardia ninae)
Assay: SEC; Superdex 200, 20 mM HEPES pH 8.0, 10 mM MgCl2, 50 mM NaCl, 10% glycerol; compared with Bio-Rad gel filtration standards

Dob3 (enzyme)
stoichiometry N: 2
